The values below come from patent US9988424 (DUKE UNIVERSITY, dated 2018).

Like-named read-outs stand apart in the source and are kept apart here.

Assay [1] deals with T1, D.9009SA V1V2 Tags.
T1 Env construct: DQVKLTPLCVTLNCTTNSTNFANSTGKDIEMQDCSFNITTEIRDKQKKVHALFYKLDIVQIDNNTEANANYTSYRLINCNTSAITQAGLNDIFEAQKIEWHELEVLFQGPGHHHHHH
The assay is described as follows: ELISA, OD405 at 10 ug/ml mAb.

Assay [2] concerns the target T2, A.9004SS V1V2 Tags.
T2 Env construct: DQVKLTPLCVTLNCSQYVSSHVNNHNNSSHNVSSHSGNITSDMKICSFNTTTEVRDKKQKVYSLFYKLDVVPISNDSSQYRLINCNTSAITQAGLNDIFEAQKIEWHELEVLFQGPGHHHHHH
The assay is described as follows: ELISA, OD405 at 10 ug/ml mAb.

Assay [3] addresses T3, AE.con gp140CF.
T3 construct: also called AE.con.env03 gp140CF
The assay is described as follows: ELISA, OD405 at 10 ug/ml mAb. In general terms: An ELISA detects its analyte on a solid surface through an enzyme-linked reagent.

Assay [4] deals with T4, C.1086 gp140.
T4 construct: also called C.1086gp140C
The assay is described as follows: ELISA, OD405 at 10 ug/ml mAb.

Assay [5] addresses T1, D.9009SA V1V2 Tags. In words: ELISA, OD405.
For assay [6], the target named is T5, B.con gp140CF.
T5 construct: also called B.con.env03 gp140CF
The assay is described as follows: ELISA, OD405.

For assay [7], the target named is T6, B.63521_V1V2 Tags.
T6 Env construct: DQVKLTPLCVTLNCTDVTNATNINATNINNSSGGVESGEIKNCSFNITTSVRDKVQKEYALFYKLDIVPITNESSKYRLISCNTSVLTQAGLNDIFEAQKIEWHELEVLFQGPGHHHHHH
In words: ELISA, OD405.

Assay [8] deals with T2, A.9004SS V1V2 Tags. The assay is described as follows: ELISA, OD405.
Assay [9] concerns the target B. 684-6 gp140C. In words: ELISA, OD405.
In assay [10] the target is T7, B.Case A2 V1/V2 Tags.
T7 Env construct: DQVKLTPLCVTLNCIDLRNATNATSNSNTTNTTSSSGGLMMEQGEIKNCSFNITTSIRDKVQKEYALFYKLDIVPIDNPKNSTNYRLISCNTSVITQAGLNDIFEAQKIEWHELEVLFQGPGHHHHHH
In words: ELISA, OD405.

The target of assay [11] is T8, G.con gp140CF.
T8 construct: also called G.con.env03 gp140CF
In words: ELISA, OD405.

The target of assay [12] is B.040 gp140C. In words: ELISA, OD405.
Assay [13] concerns the target B. 681-7 gp140C. The assay is described as follows: ELISA, OD405.
Assay [14] has as its target T3, AE.con gp140CF. In words: ELISA, OD405.
Assay [15] concerns the target T9, B.62357 140C.
T9 construct: also called B.62357 gp140C
In words: ELISA, OD405.

The target of assay [16] is B.63521 gp140C. In words: ELISA, OD405.
The target of assay [17] is Con 6 gp120. In words: ELISA, OD405.
Assay [18] addresses T1, D.9009SA V1V2 Tags. In words: ELISA, OD405.
The target in assay [19] is T2, A.9004SS V1V2 Tags. The assay is described as follows: ELISA, OD405.
For assay [20], the target named is B.040 gp140C. The assay is described as follows: ELISA, OD405. The source holds these as a separate data set.
For assay [21], the target named is B. 681-7 gp140C. The assay is described as follows: ELISA, OD405. The source holds these as a separate data set.
Assay [22] concerns the target T9, B.62357 140C. The assay is described as follows: ELISA, OD405. This is another data set of the same source.
Assay [23] deals with T10, AE.97CNG2XF gp140CF (HIV-1).
T10 construct: also called E.97CNGX2F gp140CF
The assay is described as follows: ELISA, OD405.

Assay [24] concerns the target T5, B.con gp140CF. The assay is described as follows: ELISA, OD405. This is another data set of the same source.
Assay [25] concerns the target B. 684-6 gp140C. The assay is described as follows: ELISA, OD405. This is another data set of the same source.
Assay [26] has as its target T8, G.con gp140CF. The assay is described as follows: ELISA, OD405. This is another data set of the same source.
Assay [27] deals with B.9021 gp140C (HIV-1). In words: ELISA, OD405.
The target in assay [28] is C.CAP206 gp140CF.12 (HIV-1). The assay is described as follows: ELISA, OD405.
The target of assay [29] is B.040 gp140C. In words: ELISA, OD405. This is another data set of the same source.
Assay [30] concerns the target B. 681-7 gp140C. In words: ELISA, OD405. This is another data set of the same source.
Assay [31] deals with T11, B.HXB/BAL gp140CFI (HIV-1, UniProt P04578 33-680).
T11 construct: also called B.HxB/Ba gp140 CFI
In words: ELISA, OD405.

Assay [32] has as its target T3, AE.con gp140CF. In words: ELISA, OD405. This is another data set of the same source.
Assay [33] addresses T9, B.62357 140C. In words: ELISA, OD405. The source holds these as a separate data set.
Assay [34] deals with T4, C.1086 gp140. In words: ELISA, OD405.
Assay [35] has as its target B.63521 gp140C. The assay is described as follows: ELISA, OD405. The source holds these as a separate data set.
Assay [36] addresses Con 6 gp120. In words: ELISA, OD405. This is another data set of the same source.

B1: CH59 (antibody, V domains shown)
VH: EVQLVESGGGLVQPGRSLRLSCAASGFTFDDGAMHWVRQAPGKGLEWVSGISWNSNIIAYADSVKGRFTISRDNAKNSLYLEMNSLRVEDTALYYCAKDSPRGELPLNYWGQGTLVTVSS
VL: SYELTQPPSVSVSPGQTARITCSGDALPKNYAYWYQQKSGQAPVLVIYEDSKRPSGIPERFSGSSSGTMATLTISGAQVEDEADYYCYSTDSSGNHRVFGGGTKLTVL
notes: also called mAb CH59
As to B1, the binding result in assay [1], in assay [2], in assay [3] and in [4] was “binds” each time.

B2: PG9 reverted unmutated ancestor antibody (antibody, V domains shown)
VH: QVQLVESGGGVVQPGRSLRLSCAASGFTFSSYGMHWVRQAPGKGLEWVAVISYDGSNKYYADSVKGRFTISRDNSKNTLYLQMNSLRAEDTAVYYCAREAGGPDYRNGYNYYDFWSGYYNYYYMDVWGKGTTVTVSS
VL: QSALTQPASVSGSPGQSITISCTGTSSDVGSYNLVSWYQQHPGKAPKLMIYEVSKRPSGVSNRFSGSKSGNTASLTISGLQAEDEADYYCCSLTSTRRWVFGGGTKLTVL
notes: also called PG9 RUA; PG9_RUA
B2: the binding result in [5], in [6], in [7], in [8], in assay [9] and in assay [10] was “no binding (tested: 10 ug/ml)” each time. The binding result in [11], in assay [12], in [13], in assay [14], in assay [15] and in [16] was “no binding (tested: 10 ug/ml)” throughout. Besides, the binding result in [17] was “no binding (tested: 10 ug/ml)”.

B3: PG16 (antibody, V domains shown)
VH: QEQLVESGGGVVQPGGSLRLSCLASGFTFHKYGMHWVRQAPGKGLEWVALISDDGMRKYHSDSMWGRVTISRDNSKNTLYLQFSSLKVEDTAMFFCAREAGGPIWHDDVKYYDFNDGYYNYHYMDVWGKGTTVTVSS
VL: QSALTQPASVSGSPGQTITISCNGTSSDVGGFDSVSWYQQSPGKAPKVMVFDVSHRPSGISNRFSGSKSGNTASLTISGLHIEDEGDYFCSSLTDRSHRIFGGGTKVTVL
notes: also called mAb PG16; bnAb PG16
With B3, the binding result in assay [18], in [19], in assay [20], in assay [21] and in [22] was “no binding (tested: 10 ug/ml)” each time.

B4: CH58 reverted unmutated ancestor antibody (antibody, V domains shown)
VH: EVQLVQSGAEVKKPGESLKISCKGSGYSFTSYWIGWVRQMPGKGLEWMGIIYPGDSDTRYSPSFQGQVTISADKSISTAYLQWSSLKASDTAMYYCARLGGRYYYDSSGYYYFDYWGQGTLVTVSS
VL: NFMLTQPHSVSESPGKTVTISCTRSSGSIASNYVQWYQQRPGSSPTTVIYEDNQRPSGVPDRFSGSIDSSSNSASLTISGLKTEDEADYYCQSYDSSSWVFGGGTKLTVL
notes: also called CH58 RUA; CH58_RUA
B4: the binding result in assay [23], in [24], in assay [25], in assay [26], in [27] and in assay [28] was “no binding (tested: 10 ug/ml)” in each case. The binding result in assay [29], in assay [30], in assay [31], in assay [32], in assay [33] and in assay [34] was “no binding (tested: 10 ug/ml)” each time. In addition, the binding result in [35] and in assay [36] was “no binding (tested: 10 ug/ml)” each time.
